Laboratory results: patent publication US20260258397A1, “REAGENTS AND SYSTEMS FOR […]” (priority 2023, published 2026)
“Also recorded” adds a separate entry of the source. Like-named read-outs stand apart in the source and are kept apart here.

B1: PYR1^PIRI (protein)
chain: MPSELTPEERSELKNSIAEFHTYQLDPGSCSSLHAQRIHAPPELVWSIVRRFDKPQTYRHFIKSCSVEQNFEMRVGCTRDVIVISGLPANTMTERLDILDDERRVTGFSIIGGEHRLTSYKQVTTVHRFGKENRIWTVVLESYVVDMPEGNSEDDTRMTTDTVVKLNLQKLATAAEAMARNSGDGSGSQVT
B2: PYL2^WIN: PYL2 sensor (K64Q, F165A, V1661), SEQ ID NO: 37 (protein)
chain: MSSSPAVKGLTDEEQKTLEPVIKTYHQFEPDPTTCTSLITQRIHAPASVVWPLIRRFDNPERYQHFVKRCRLISGDGDVGSVREVTVISGLPASTSTERLEFVDDDHRVLSFRVVGGEHRLKNYKSVTSVNEFLNQDSGKVYTVVLESYTVDIPEGNTEEDTKMAIDTVVKLNLQKLGVAATSAPMHDDE
B3: PYR1^DIAZI (protein)
chain: MPSELTPGERSELKNSIAEFHTYQLDPGSCSSLHAQRIHAPPELVWSIVRRFDKPQTYKHFIKSCSVEQNFEMRVGCTRDYIVISGMPANTSTERLDILDDERRVTGYSIIGGEHRLTNYKSVTTVHRFEKENRIWTVVLESYVVDMPEGNSEDDTRVGVDTVVKLNLQKLATVAEAMARNSGDGSGSQVT

Columns and labels:
[1] = tested on: ΔN-HAB1; assay: Ligand/receptor-mediated PP2C (ΔN-HAB1 phosphatase) inhibition by recombinant PYR1 sensors; assay type: biochemical, Arabidopsis; settings: for response of evolved organophosphate receptors to native ligand ABA: HAB1 inhibition and Y2H assays, ABA tested at 5000 nM in Y2H; for EC50: read-out: EC50, receptor-mediated inhibition of HAB1 phosphatase activity in vitro
Experimental: Coding sequences of the cannabinoid sensors were cloned into the protein expression vector pET28a to encode 6×His-tag-receptor fusions.
(§1) High-affinity sensors were tested for cross reaction using both Y2H and in vitro PP2C assays. […] Similar methods were used to characterize PYR1^PIRI and PYR1^WIN sensor selectivity and sensitivity.

[2] = tested on: Luc^N-PYR1/Luc^C-ΔN-HAB1; assay: In vivo split NanoLuc luciferase complementation in yeast; assay type: cell-based, S. cerevisiae; settings: read-out: EC50 split luciferase reconstitution
Experimental: Ligand was added to yeast cultures 12 h prior to measuring cell luminescence. A sample of each culture was diluted to an OD600 of 0.2, 10 μL of which was transferred to a 96-well plate, the luciferase reagent mixture (Nano-Glo live cell substrate; Promega) diluted to a 1× concentration with DI water was added to the cell sample to a final volume of 200 μL. The relative luminescence signal (RLU) was measured using a Synergy™ Neo2 Multi-Mode Microplate Reader in luminescence detection mode for 30 minutes after the addition of the reagents. The RLU of each measured sample was taken as the average value of the time course once the signal had reached a plateau.
A protein complementation output assay of evolved PYR-based sensors was carried out by NanoLuc split luciferase (19). The larger fragment, LgBit (or Luc^N), was fused to N-terminus of PYR1 variants, while the small fragment, SmBit (or Luc^C) was fused to N-terminus of ΔN-HAB1. […] Ligand was added to yeast cultures 12 hour prior to measuring cell luminescence. […] The relative luminescence signal (RLU) was immediately measured continuously in a Synergy™ Neo2 Multi-Mode Microplate Reader over 30 minutes. The average value of RLU of each measured sample was taken once the measurements had reached a stable value. […]

[3] = tested on: HAB1; assay: Y2H X-gal staining of evolved sensors: ligand responsiveness and cross reaction; assay type: cell-based, Arabidopsis; settings: Y2H, FIG. 7; WIN 55,212-2 or 4F-MDMB-BUTINACA
Experimental: as §1
The PYL2 coding sequence cloned in the Y2H pBD vector was used as template to incorporate the corresponding PYR1^WIN and PYR1^4F homologous residues via site directed mutagenesis using the QuikChange Lightning Multi Site-Directed mutagenesis kit (Agilent Technologies). Resulting clones PYL2^WIN (K64Q, F165A, V1661) and PYL2^4F (H119Q, Y124G, F165V, V166G) were sequence confirmed and incorporated into MAV99 harboring pACT-HAB1 and tested for ligand activation using uracil-independent growth and X-gal staining experiments. The same method was used to generate a PYL2^WIN version in a protein expression vector for crystallization studies.

Molecule | response of evolved organophosphate receptors to native ligand ABA [1] | EC50 ([1]; sensor PYR1^PIRI, ligand pirimiphos-methyl) [nM] | EC50 ([2]; Luc^N-PYR1^PIRI/Luc^C-HAB1 in yeast, ligand pirimiphos-methyl) [nM] | ligand responsiveness of PYL2 transposed sensors [3] | EC50 ([1]; sensor PYR1^DIAZI, ligand diazinon) [nM] | EC50 ([2]; Luc^N-PYR1^DIAZI/Luc^C-HAB1 in yeast, ligand diazinon) [nM]
B1 | no longer bind the native ligand ABA; also recorded: neither receptor was activated by ABA | 58 | 19 |  |  | 
B2 |  |  |  | nM ligand responsiveness |  | 
B3 | no longer bind the native ligand ABA; also recorded: neither receptor was activated by ABA |  |  |  | 36 | 24
